Experimental data: the supplement of paper PMC7125110
± gives the standard error. For some of these results: This sample holds only a part of the variants without activity.

B1: glmS ribozyme (parent)
chain: AUAAAAGCGCCAGAACUACAGAAAUGUAGUUGACGAGGAGGAGGUUUAUCGAAUUUUCGGCGGAUGCCUCCAAA

Assays:
Details in all cases: with glucosamine-6-phosphate
glucosamine-6-phosphate [1] = variants of: B1; assay: kcat; higher = faster cleavage; RNA array
Summary of the method: (§1)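 Tiles bearing barcoded ribozyme variants, transcribed in situ by E. coli RNA polymerase on sequenced MiSeq chips, were imaged over ~14 h at 37 °C using a hybridised Cy3 probe. Glucosamine-6-phosphate was supplied at 40 μM to 10 mM in HEPES/KCl/Mg(OAc)2 buffer. kobs came from one- or two-exponential decay fits to normalised per-tile medians, and weighted Michaelis–Menten fits then provided kcat and KM.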

glucosamine-6-phosphate [2] = variants of: B1; assay: self-cleavage kobs at 160 uM GlcN6P; higher = faster cleavage; RNA array
Summary of the method: as §1

glucosamine-6-phosphate [3] = variants of: B1; assay: self-cleavage kobs at 640 uM GlcN6P; higher = faster cleavage; RNA array
Summary of the method: as §1

glucosamine-6-phosphate [4] = variants of: B1; assay: self-cleavage kobs at 2500 uM GlcN6P; higher = faster cleavage; RNA array
Summary of the method: as §1

glucosamine-6-phosphate [5] = variants of: B1; assay: self-cleavage kobs at 10000 uM GlcN6P; higher = faster cleavage; RNA array
Summary of the method: as §1

glucosamine-6-phosphate [6] = variants of: B1; assay: self-cleavage kobs at 40 uM GlcN6P; higher = faster cleavage; RNA array
Summary of the method: as §1

glucosamine-6-phosphate [7] = variants of: B1; assay: KM; higher = weaker cofactor use; RNA array
Summary of the method: as §1

Variant	kcat (glucosamine-6-phosphate [1])	self-cleavage kobs at 160 uM GlcN6P (glucosamine-6-phosphate [2])	self-cleavage kobs at 640 uM GlcN6P (glucosamine-6-phosphate [3])	self-cleavage kobs at 2500 uM GlcN6P (glucosamine-6-phosphate [4])	self-cleavage kobs at 10000 uM GlcN6P (glucosamine-6-phosphate [5])	self-cleavage kobs at 40 uM GlcN6P (glucosamine-6-phosphate [6])	KM (glucosamine-6-phosphate [7])
U57C C68G	1.42e-05 ± 2.7e-06 s⁻¹						
U56G U69G C71U	4.56e-05 ± 1.5e-05 s⁻¹	8.5e-05 ± 2.7e-05 s⁻¹	3.88e-05 ± 1.7e-05 s⁻¹	5.83e-05 ± 2e-05 s⁻¹			
C58A C61A	1.11e-05 ± 1.1e-06 s⁻¹				< 1e-05 s⁻¹		
U55A A64C	0.000188 ± 3.5e-05 s⁻¹		2.82e-05 ± 1.2e-05 s⁻¹	0.000144 ± 2.3e-05 s⁻¹	0.000149 ± 1.3e-05 s⁻¹		
U55A A64G	0.0275 ± 0.012 s⁻¹	0.00181 ± 0.00043 s⁻¹	0.0094 ± 0.0023 s⁻¹	0.0275 ± 0.0092 s⁻¹	0.0227 ± 0.0054 s⁻¹	0.000991 ± 0.00014 s⁻¹	
C58A C61A C70U	1.3e-05 ± 1.9e-06 s⁻¹						
U57A U69C	0.000113 ± 1.4e-05 s⁻¹			7.81e-05 ± 1.8e-05 s⁻¹	9.38e-05 ± 1.8e-05 s⁻¹		1640 ± 640 µM
U57A U69A	3.14e-05 ± 6.3e-06 s⁻¹			3.75e-05 ± 1.1e-05 s⁻¹			
U55G A64G	0.0303 ± 0.0073 s⁻¹	0.00204 ± 0.00033 s⁻¹	0.0075 ± 0.00091 s⁻¹	0.0149 ± 0.0036 s⁻¹	0.0308 ± 0.0088 s⁻¹	0.000723 ± 0.00013 s⁻¹	1980 ± 600 µM
U56A A64G	0.0109 ± 0.0032 s⁻¹	0.000983 ± 0.00014 s⁻¹	0.0025 ± 0.00037 s⁻¹	0.00654 ± 0.00084 s⁻¹	0.0123 ± 0.0025 s⁻¹	0.00036 ± 5.4e-05 s⁻¹	1640 ± 680 µM
A53C C67G	3.47e-05 ± 4.1e-06 s⁻¹			3.42e-05 ± 9e-06 s⁻¹	3.14e-05 ± 6.5e-06 s⁻¹	< 1e-05 s⁻¹	
A53C C67U	0.00119 ± 0.00012 s⁻¹	0.000109 ± 1e-05 s⁻¹	0.000355 ± 3.8e-05 s⁻¹	0.000692 ± 8.1e-05 s⁻¹	0.00108 ± 0.00011 s⁻¹	4e-05 ± 6.8e-06 s⁻¹	1500 ± 230 µM
A53C C67A	0.000935 ± 0.0003 s⁻¹	7.58e-05 ± 1.6e-05 s⁻¹	0.000414 ± 6.3e-05 s⁻¹	0.000435 ± 0.00011 s⁻¹	0.000889 ± 0.00017 s⁻¹		1500 ± 750 µM
U56C C70U	0.000177 ± 5e-06 s⁻¹		4.77e-05 ± 6.2e-06 s⁻¹	0.000111 ± 9.3e-06 s⁻¹	0.00015 ± 1e-05 s⁻¹		1660 ± 120 µM
U56C C70A	1.36e-05 ± 2.7e-06 s⁻¹						
U57G C68U	3.41e-05 ± 1.5e-05 s⁻¹		3.46e-05 ± 1.4e-05 s⁻¹	6.22e-05 ± 1.2e-05 s⁻¹	1.92e-05 ± 8.6e-06 s⁻¹	< 1e-05 s⁻¹	
U56A C61G	< 1e-05 s⁻¹						
U57A A64U	< 1e-05 s⁻¹				< 1e-05 s⁻¹	< 1e-05 s⁻¹	
U56G C61U	< 1e-05 s⁻¹					< 1e-05 s⁻¹	

Variant	kcat (glucosamine-6-phosphate [1])	self-cleavage kobs at 160 uM GlcN6P (glucosamine-6-phosphate [2])	self-cleavage kobs at 640 uM GlcN6P (glucosamine-6-phosphate [3])	self-cleavage kobs at 2500 uM GlcN6P (glucosamine-6-phosphate [4])	self-cleavage kobs at 10000 uM GlcN6P (glucosamine-6-phosphate [5])	self-cleavage kobs at 40 uM GlcN6P (glucosamine-6-phosphate [6])	KM (glucosamine-6-phosphate [7])
U57G C71G	2.02e-05 ± 3.8e-06 s⁻¹						
U54C U57C	0.000143 ± 2e-05 s⁻¹			6.28e-05 ± 1.1e-05 s⁻¹	0.000105 ± 1.6e-05 s⁻¹		3450 ± 1100 µM
U57A C70U	0.000272 ± 5.5e-05 s⁻¹	5.07e-05 ± 2.3e-05 s⁻¹	5.92e-05 ± 7.8e-06 s⁻¹	0.000133 ± 1.9e-05 s⁻¹	0.000234 ± 3.8e-05 s⁻¹		2300 ± 790 µM
U57A C70A	1.98e-05 ± 3.5e-06 s⁻¹						
U56A C68A	4.71e-05 ± 1.1e-05 s⁻¹	5.43e-05 ± 1e-05 s⁻¹	5.74e-05 ± 1e-05 s⁻¹	5.61e-05 ± 1e-05 s⁻¹			
U56A C68G	7.31e-05 ± 8.9e-06 s⁻¹	6.33e-05 ± 1.2e-05 s⁻¹	0.00011 ± 1.5e-05 s⁻¹	6.61e-05 ± 7.6e-06 s⁻¹	6.94e-05 ± 7.3e-06 s⁻¹		
U54G U56G	0.016 ± 0.0043 s⁻¹	0.000796 ± 0.00017 s⁻¹	0.00338 ± 0.00059 s⁻¹	0.00688 ± 0.0019 s⁻¹	0.013 ± 0.0058 s⁻¹		2790 ± 950 µM
U54A U69G	6.78e-05 ± 1.1e-05 s⁻¹	6.31e-05 ± 2.8e-05 s⁻¹	9.07e-05 ± 1.8e-05 s⁻¹	9.01e-05 ± 1.6e-05 s⁻¹	5.62e-05 ± 8.3e-06 s⁻¹		
A53G C70A	0.000194 ± 2e-05 s⁻¹	0.000132 ± 1.6e-05 s⁻¹	0.000188 ± 2.3e-05 s⁻¹	0.000183 ± 2.6e-05 s⁻¹		7.6e-05 ± 7e-06 s⁻¹	63.2 ± 16 µM
U55C U57C	9.84e-05 ± 1.9e-05 s⁻¹			8.25e-05 ± 1.9e-05 s⁻¹	8.27e-05 ± 1.2e-05 s⁻¹		
U57A G63A	< 1e-05 s⁻¹	< 1e-05 s⁻¹			< 1e-05 s⁻¹		
U57G G62U	< 1e-05 s⁻¹			< 1e-05 s⁻¹		< 1e-05 s⁻¹	
A53G C71A	0.00448 ± 0.002 s⁻¹	0.00085 ± 0.00013 s⁻¹	0.00169 ± 0.00037 s⁻¹	0.00297 ± 0.0007 s⁻¹	0.00857 ± 0.0012 s⁻¹	0.000374 ± 4.3e-05 s⁻¹	
U56A C71A	0.00492 ± 0.0022 s⁻¹	0.000174 ± 3.4e-05 s⁻¹	0.000881 ± 0.0001 s⁻¹	0.00216 ± 0.00042 s⁻¹	0.00398 ± 0.00071 s⁻¹	9.35e-05 ± 1.1e-05 s⁻¹	
U56C C68G	< 1e-05 s⁻¹	< 1e-05 s⁻¹			< 1e-05 s⁻¹		
U55C G60A	1.48e-05 ± 1.8e-06 s⁻¹					< 1e-05 s⁻¹	
A53G C68G	0.000144 ± 2.6e-05 s⁻¹	5.82e-05 ± 1e-05 s⁻¹	8.52e-05 ± 9.4e-06 s⁻¹	0.00014 ± 1.5e-05 s⁻¹			
A53G C68A	5.55e-05 ± 7.9e-06 s⁻¹	5.86e-05 ± 1.5e-05 s⁻¹	6.08e-05 ± 1.2e-05 s⁻¹	6.36e-05 ± 1e-05 s⁻¹	4.54e-05 ± 7.8e-06 s⁻¹		
